Experimental data from article PMC5827136.

Target: Histone H4 (UniProt P62805)
Experiment: SPR

“protein SIC (Streptococcal Inhibitor of Complement) (natural protein)” showed a Kd of 0.0176 µM, a koff of 0.000591 s⁻¹ and a kon of 33500 M⁻¹ s⁻¹.
